Source: patent publication US20200297837A1
Like-named read-outs stand apart in the source and are kept apart here.

Tests used:
[1] = target: T1, HLA-E*01033 on the HLA-E*01033-transfected derivative of the K562 cell line (human), P13747; assay: HLA-E stabilization assay on K562/HLA-E cells, overnight 26 C, anti-HLA-E mAb staining, flow cytometry (without peptide: 1400)
[2] = target: T1, HLA-E*01033 on the …

Row | Binder | MFI [1] | MFI [2]
1 | RMYSPVSIL (modifications not checked) [HIV-1 Gag derived peptide … (SEQ ID NO: 1)] | 8240 MFI | –
2 | TALSEGATP (modifications not checked) [HIV-1 Gag derived peptide … (SEQ ID NO: 3)] | 8530 MFI | –
3 | VMATRRNVL (modifications not checked) [MBt derived peptide … (SEQ ID NO: 15)] | – | 7520 MFI
4 | RIRTWKSLV (modifications not checked) [HIV-1 Pol derived peptide … (SEQ ID NO: 17)] | 6580 MFI | –
5 | PEIVIYDYM (modifications not checked) [HIV-1 Pol derived peptide … (SEQ ID NO: 16)] | – | 7320 MFI
